± gives the uncertainty stated by the source.
Assay: amyloid nucleation score (Sup35N fusion, yeast selection) (log enrichment); library NNK3; higher = more nucleation; inactive = no reads after selection
In short: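 Output and input plasmid inserts were sequenced by Illumina after psi-negative yeast carrying Sup35N fused to peptides of 20 random codons had been induced 24 hours with 100 μM copper sulfate and grown 7 days at 30°C on medium lacking adenine and uracil. The nucleation score is the DiMSum log enrichment of output over input reads, centred on the mode score of non-aggregating sequences. Sequences with under 100 input reads were excluded.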

Substance | amyloid nucleation score
DMVLSEPFFFGLCFLDFWIF | inactive
DMYVLLMRTQSLGMPLIGIS | inactive
DNATARLQTRNEWSMR | inactive
DNCCKLARVLAWFVFNRLNR | inactive
DNFRVDLVNRLLFYRISHAA | inactive
DNLWRVRLRCKAFSLYVLNR | inactive
DNMSKTSFKLTNCRQCIM | inactive
DNSGVSVQLRKVSESGSA | inactive
DNVNYPPVSYQTAG | inactive
DPWDPYFNLRVSYPFKYYLS | inactive
DPYAGLDNLTRIWASKPSKY | inactive
DQCVLRLPFVIRGSHVSGRK | inactive
DQDKLFSEIRAMKFCCSFPP | inactive
DQHFCKSEREGTRYWLRLTI | inactive
DRDGQPAWHLS | inactive
DRHCLSL | 0.582 ± 0.17
DRHSRCQ | inactive
DRIAHF | inactive
DRLRYNLWS | inactive
DRMKATVQLDFG | inactive
DRSDSMYPINMREESREFTF | inactive
DRSLMRS | inactive
DRVPSDTRCYKYGLLLLWYQ | inactive

Substance | amyloid nucleation score
DSCKIYGG | inactive
DSDDNVRKNFAS | inactive
DSFGLFCYTYLWCLWQANDK | 2.05 ± 0.097
DSFLSGSEELSVSDCCCIAF | inactive
DSFRDRGCQQKIEIF | inactive
DSFVLSTTFLSSGTSAACLG | -1.32 ± 2.5
DSGCLAMF | inactive
DSGKC | -0.165 ± 0.33
DSLAVFNNVRRSMTVSRSAA | -0.89 ± 1.3
DSMVCSHCWLFDEGSYVYGQ | inactive
DSSDVVSVLVLSEMCAALVT | inactive
DSSRTVGCLSCFYFAIGFWI | 0.681 ± 0.34
DSTSLKIGRNAMSHHKSNPC | 1.09 ± 0.11
DTGFCYKFNYIPVDVIICIC | 1.32 ± 0.12
DTISGGEWDNEVRPYRILLL | inactive
DTYGVVCEVYAILWMNRPLR | inactive
DVEFGLSKLCYHRVCYVTEM | -0.113 ± 0.66
DVFDYVSTVVTNYW | inactive
DVFSDSQVVENRV | inactive
DVLTVMSQLVVMKTL | inactive
DVMRGIKYVRRVNAQLTGSS | inactive
DVMRVWFTEYSMSTTVGMAV | inactive
DVMTKDQ | inactive

Substance | amyloid nucleation score
DVNIRSSGDNTIAFKYYTMK | 0.14 ± 0.38
DVSLVGSVMRIELLEMCVSR | inactive
DVSRVIA | inactive
DWCVSSEMSVTNALQATKFA | inactive
DWEDCVV | inactive
DWGTASSSTVGFEQSSDKVF | inactive
DWIKFHVTDW | inactive
DWNRLFRVD | inactive
DWNYNTLQLSSPVGAGLTKN | inactive
DYALC | inactive
DYALI | inactive
DYATESFTVITLLGILLDRG | inactive
DYHLQLKMLRPW | inactive
DYSIAVGYWSFHVN | inactive
DYVNRCI | inactive
EAARTDLSILFISWMLLGKR | inactive
EATPSSIQAQ | inactive
ECADLWARLYHFF | inactive
ECCGDLGAVWQVVRNCGKVL | inactive
ECCQSSSVITNFSSFVKGGA | inactive
ECWKVGKGLRSE | inactive
EDAFWYYVEWPYKWLQGGHS | inactive
EDSMRYCH | inactive

Substance | amyloid nucleation score
EEDKLFCGVMWQFG | inactive
EEFSGNLCDFRLQPRSCCEN | inactive
EEPNG | inactive
EFCIRRIM | inactive
EFFHNYVINMERYNCVLVRM | inactive
EFGDFVDKASMLNIWDGIVG | inactive
EFMKGFAWISMFNLRSVLNS | inactive
EFMSSVGIYMEIDCTLGVCD | inactive
EFVEAYFSNGLSRLPLTHGM | inactive
EGETTEVLTLVVWRKVINNS | inactive
EGHLIHEYTQTRFVLEVSVK | inactive
EGNYAYAVVSHAHFEV | inactive
EGRRIAGNARDRDHDLQVGR | inactive
EGRRPKYIGNESRYNMYHPY | inactive
EHIEIRSSFEVSPHTPNPAS | inactive
EHNYSTASITSTLSTPNRAI | inactive
EHVKRVRIWNSVNLVIEYMA | 0.635 ± 0.19
EIFGSISG | inactive
EIICLSLLCS | 2.18 ± 0.053
EIIFSSLSIPLYMLEGI | inactive
EILISNCEVDRRLYRGGN | -0.618 ± 0.98
EISLPLFFATLGYFFWIAMR | inactive
EITLYEQGNNRSLVGPERKS | inactive

Substance | amyloid nucleation score
EKLCAHCSCPKVGVELFGCV | inactive
EKMDLPRAYGDIRTPKEVVR | 0.788 ± 0.12
EKRPNPVSICLRWIKEKAT | inactive
ELDMLRYEVMVCNHDDGLCE | inactive
ELFKEVCEGEFRAS | inactive
ELLFIDGWKST | inactive
ELLLMCIDDVSMRFITPLEY | inactive
ELRLMGFRGALDACLSLHPI | inactive
ELSTMIKSSCPPLIDRWLFP | inactive
EMRKAIRRL | inactive
EMRSFVGNSCI | -0.613 ± 1.5
EMVITWCLRMLSQAMLGGYS | inactive
EMYGWINMIQWNLLCVSEII | inactive
EPKLDNV | inactive
EQLFD | inactive
EQTLGYNLIRAWLSKCCWMT | inactive
ERELGQRLSCTGNSTVWSYE | inactive
ERFSFVLVNGVRYFRSNLRW | inactive
ERLFRFENEDLVIFIYCSIL | inactive
ERLGVL | inactive
ERMRLNARFSTHLE | inactive
ERRASLGYNHIL | inactive
ESCGRSQHPKEAKELESGAG | inactive

Substance | amyloid nucleation score
ESDGCNNQFRHWSHCRSKNP | inactive
ESDITICS | inactive
ESFLFFMFIFASCTT | 0.536 ± 0.33
ESSNNPFFDQAYIYIKFY | -0.42 ± 0.9
ESVNGTSFPVFIYHRTSFRL | 1.61 ± 0.069
ESWKWYQYSVQWAWYEHPHS | inactive
ESWNRKVLRHVSVEWHWLV | inactive
ETDVHSYFVSLYSYPFAVEP | inactive
ETFVGLEVNWNSCNCFIVQE | 1.87 ± 0.076
ETISFYLCLLYDVKLVNALM | -0.54 ± 0.68
EVCQCRPTTVSLARVGRIVV | inactive
EVEIRWPCLKVVFLFLVH | inactive
EVLYYRFLF | inactive
EVPGHSGQYSGVDYGYVWLA | inactive
EVRRRDLYLWKASETLLRLL | inactive
EVWRVSDSYSVDEIFVLLNL | inactive
EVYLETCRGILFCALDTIFG | -0.264 ± 1
EYGLNFSLNGYLSH | 0.601 ± 0.32
EYSLTLPYFVGSALPPQNTC | inactive
FAAARSYFKLFHIYCDDVTG | 1.96 ± 0.071
FADYFASSIFWYRCASHLGW | inactive
FAHVI | inactive
FALSWSSNGAALLRLELTTL | 0.224 ± 0.44

Substance | amyloid nucleation score
FASIVFRCVLFTLFHPAVFR | inactive
FASYYHTVDRADFDDLDPAN | inactive
FAVQCWKAGVAKNYGMHFVC | inactive
FCCINKLDGLGVWETYCSYS | inactive
FCEDSRMSYKFYVSCIFAHS | 0.636 ± 0.14
FCFDEEDVLRTGCNGDSYPG | inactive
FCGPFSYGRLTYGFWFRKRP | 1.75 ± 0.11
FCIECYL | inactive
FCKLQYTGQS | inactive
FCRRSGSFVLDMTYWGMYRP | 0.156 ± 0.32
FCSLIKYSQNYYNPLAHTVL | inactive
FCSRYWLYLCRALLNRVVMR | inactive
FCTGWSNGLVNHVDYKKGRN | inactive
FCYEHSLWLCLSYKVTVMRM | 1.08 ± 0.15
FCYSDFIPLWIR | inactive
FDDLSARVPLTVTLWPSHTA | inactive
FDEDRREV | inactive
FDGNFGWARRVNAGDSLFMF | inactive
FDGTVVSR | inactive
FDGVGYATSIMEGNDSG | inactive
FDNFFYWSRKRD | inactive
